These results are taken from patent publication US8809287B2, “Compositions and methods for altering Wnt autocrine signaling” (Icahn School of Medicine at Mount Sinai, priority 2004, dated 2014).

One assay relates to HCT116 cell lines. Put plainly: Tumorigenicity of HCT116 cell lines injected subcutaneously in nude mice. The class given is in vivo. As for the experimental part:
To assess the effects of Wnt autocrine inhibition in vivo, tumorigenicity experiments were performed utilizing parental or β-catenin wild type allele containing HCT116 cell lines, in which stable marker selected mass cultures expressing FRP1 were obtained. Parental and wild type β-catenin allele containing HCT116 cells were transfected with either vector control or FRP1. Marker selected mass cultures of each were subcutaneously injected in 6 week old nude mice at 2.5×10^6 cells per site. Tumor growth was monitored at weekly intervals as previously described (Pierce et al. (1991) Oncogene 6:1189-1194). Values in FIG. 7F represent the mean (± standard deviation) of 4 inoculation cites per cell line. […] All of these findings establish that autocrine Wnt signaling can be present in human colon carcinoma cells that harbor downstream lesions within the canonical pathway.

In another assay the test system is AB589. Kind of assay: Saturation density of AB589 cells. The format is cell-based, human. The conditions noted are these: AB589 infected with retrovirus (data not shown).
For a further assay, the system named is ID2. Put plainly: Northern blot of Id2 in HCT116 clones. The format is cell-based, human. The conditions noted are these: HCT116 wild type β-catenin allele clone. The source says:
We next assessed the effects of FRP1 inhibition on the expression of Id2, Cyclin D1 and Myc, known targets of Wnt/β-catenin in colorectal cancer (Rockman et al. (2001) J. Biol. Chem. 276:45113-45119; Tetsu and McCormick (1999) Nature 398:422-426; He et al. (1998) Science 281:1509-1512). RNAs were extracted from HCT116 parental cells, and either wild type or mutant β-catenin allele containing clones transfected with either vector control or FRP1-HA using Triazol (Invitrogen). The RNAs were separated by (1%) agarose gel electrophoresis and transferred to a nylon membrane (Hybond®, Pharmacia). Probes were labeled by the Random Prime Labelling System method (Amersham Biosciences), and hybridization was performed overnight utilizing the Hybrisol I solution (Serologicals Corporation) according to the manufacturer's instructions. Normalization was performed utilizing a commercial human GADPH control probe (BD Biosciences Clontech).

The next assay concerns MDAMB157 cells. Kind of assay: tBh-induced apoptosis (Annexin/PI FACS) in MDAMB157 cells. The format is cell-based, human. The conditions noted are these: each concentration of tBh, over-expression vs vector. As for the experimental part: To assess the effects of Wnt inhibition by FRP1 or DKK1 on the response of MDAMB157 cells to apoptotic stimuli, we exposed AB589 or MDAMB157 cells expressing either vector control, FRP1 or DKK1 to increasing concentrations of tert-butyl hydroperoxide (tBh) (Sigma) a known inducer of oxidative stress that causes DNA damage through reactive oxygen species (ROS) (Macip et al., (2003) Mol. Cell. Biol. 23:8576-8585), and analyzed the apoptotic response. Sub-confluent cultures were treated with increasing amounts of tert-butyl hydroperoxide (tBH) for 2 hours. Twenty-four hours later, cells were washed in PBS, trypsinized and incubated with Annexin and PI using the Annexin-V-Fluos Staining kit (Roche). Fluorescent stained cells were subjected to FACS (Beckton Dickinson FACScan) using Cell Quest 3.2 software (Beckton Dickinson) for acquisition and analysis.

Assay [1] has as its system uncomplexed β-catenin. Kind of assay: Uncomplexed β-catenin in MDAMB231 breast tumor cells. The format is cell-based, human. The conditions noted are these: FRP1-HA retrovirus. Here is the method:
(§1) β-catenin levels were assessed using the GST-E-cadherin binding assay, which has been previously described (Bafico et al., (1998) Oncogene 16:2819-2825). Briefly, bacterially expressed GST-E-cadherin was purified with glutathione-Sepharose beads and incubated with 1 mg of each cell lysate. The GST-E-cadherin/[…]-catenin complex bound to the beads was recovered by centrifugation and analyzed by SDS-PAGE followed by immunoblotting. The uncomplexed β-catenin was detected using a monoclonal antibody to β-catenin (Transduction Laboratories). Unphosphorylated β-catenin was detected with a monoclonal antibody specific for β-catenin dephosphorylated at residues 27-37 (Alexis, Läufelfingen, Switzerland). FRP1-HA and DKK1-HA were detected with an anti-HA monoclonal antibody (Hybridoma Center, Mount Sinai School of Medicine, New York).
(§2) Breast (MDAMB231, ATCC No. HTB-26) and ovarian A1847 tumor cell lines were infected with vector alone or FRP 1-HA (described in Example 1) retroviruses and marker selected. […] Breast (MDAMB231) and ovarian A1847 tumor cell lines were analyzed for uncomplexed β-catenin and FRP 1-HA by immunoblot analysis with either an anti-β-catenin antibody (Transduction Laboratories) or an anti-HA antibody (Hybridoma Center, Mount Sinai School of Medicine, New York). […]

In assay [2] the test system is uncomplexed β-catenin. Put plainly: Uncomplexed β-catenin in PAI ovarian tumor cells. The format is cell-based, human. The conditions noted are these: DKK1-HA retrovirus. As for the experimental part: as §1, §2
Assay [3] deals with TCF dependent transcription. Put plainly: TOP-Glow/FOP-Glow TCF reporter assay in PAI tumor cells. The conditions noted are these: PAI ovarian tumor cells, 48 hours. The format is cell-based, human. Here is the method: Wnt signaling activates TCF dependent transcription, which can be monitored by reporters containing TCF responsive elements (Morin et al., (1997) Science 275:1787-1790). TCF responsive elements operably linked to a reporter (TOP-Glow, wild type, or FOP-Glow, mutant) were analyzed for transcriptional activity in PAI tumor cells in the presence or absence of DKK1. Ovarian tumor PAI cells plated at 3×10^5 per well in 6-well plates were co-transfected with 1 μg of either the TOP-glow or FOP-glow plasmids (Upstate Biotechnology, Waltham, Mass.) and 0.001 μg of the Renilla control plasmid (pRL-CMV) utilizing Fugene (Roche) according to the manufacturer's instructions. After 48 hours cells were lysed and analyzed utilizing the Dual Luciferase Reporter Assay system (Promega, Madison, Wis.). […] These findings further established that TCF dependent transcription was constitutively activated in these tumor cells by an autocrine Wnt mechanism.

B1: FRP1: human secreted Frizzled Related Protein 1, Wnt antagonist; expressed from pBabe-derived retrovirus with carboxy-terminal HA tag (protein, UniProt Q8N474 32-314, looked up)
Secreted frizzled-related …: SEYDYVSFQSDIGPYQSGRFYTKPPQCVDIPADLRLCHNVGYKKMVLPNLLEHETMAEVKQQASSWVPLLNKNCHAGTQVFLCSLFAPVCLDRPIYPCRWLCEAVRDSCEPVMQFFGFYWPEMLKCDKFPEGDVCIAMTPPNATEASKPQGTTVCPPCDNELKSEAIIEHLCASEFALRMKIKEVKKENGDKKIVPKKKKPLKLGPIKKKDLKKLVLYLKNGADCPCHQLDNLSHHFLIMGRKVKSQYLLTAIHKWDKKNKEFKNFMKKMKNHECPTFQSVFK
modifications: C-terminal HA tag
notes: human secreted Frizzled Related Protein 1, Wnt antagonist; expressed from pBabe-derived retrovirus with carboxy-terminal HA tag
Turning to B1, the tumor growth result in the assay with HCT116 cell lines (parental HCT116 cells expressing FRP1, subcutaneous in nude mice) is “no effect”. The tumor forming ability result in the assay on HCT116 cell lines (β-catenin wild type allele containing HCT116 cells expressing FRP1, subcutaneous in nude mice) was “striking reduction”. Besides, the saturation density entry in the assay on AB589 is “no detectable effect”. Also, the Id2 transcript level result with ID2 is given as “reduction”. Moreover, in the assay with MDAMB157 cells, the level of apoptosis entry is “statistically significant increase”. Besides, the “constitutively up-regulated β-catenin” value in the assay on uncomplexed β-catenin [1] is given as “inhibition of constitutively up-regulated β-catenin”.

B2: DKK1: Dickkopf-1, secreted Wnt antagonist protein that binds Wnt co-receptor LRP6; used purified, in conditioned media or retrovirally expressed with HA tag (protein, UniProt O94907 32-266, looked up)
Dickkopf-related protein 1: TLNSVLNSNAIKNLPPPLGGAAGHPGSAVSAAPGILYPGGNKYQTIDNYQPYPCAEDEECGTDEYCASPTRGGDAGVQICLACRKRRKRCMRHAMCCPGNYCKNGICVSSDQNHFRGEIEETITESFGNDHSTLDGYSRRTTLSSKMYHTKGQEGSVCLRSSDCASGLCCARHFWSKICKPVLKEGQVCTKHRRKGSHGLEIFQRCYCGEGLSCRIQKDHHQASNSSRLHTCQRH
modifications: HA tag in some uses
For the molecule B2, in the assay on AB589, the saturation density result was “no detectable effect”. In the assay with uncomplexed β-catenin [2], the “constitutively up-regulated β-catenin” value was “inhibition of constitutively up-regulated β-catenin”. In addition, the level of apoptosis result in the assay on MDAMB157 cells is reported as “statistically significant increase”. Moreover, in assay [3], the “level of endogenous TCF dependent signaling” value is “striking reduction”.
